Assay results reported in publication doi:10.1101/2024.08.14.606984 (bioRxiv, 2024).

Molecular target: the molecule itself
Test: SEC

B1: GCN2^K619R, kinase dead mutant of human General Control Non-derepressible 2 (GCN2) (enzyme, UniProt Q9P2K8 1-1649, looked up)
chain: MAGGRGAPGRGRDEPPESYPQRQDHELQALEAIYGADFQDLRPDACGPVKEPPEINLVLYPQGLTGEEVYVKVDLRVKCPPTYPDVVPEIELKNAKGLSNESVNLLKSRLEELAKKHCGEVMIFELAYHVQSFLSEHNKPPPKSFHEEMLERRAQEEQQRLLEAKRKEEQEQREILHEIQRRKEEIKEEKKRKEMAKQERLEIASLSNQDHTSKKDPGGHRTAAILHGGSPDFVGNGKHRANSSGRSRRERQYSVCNSEDSPGSCEILYFNMGSPDQLMVHKGKCIGSDEQLGKLVYNALETATGGFVLLYEWVLQWQKKMGPFLTSQEKEKIDKCKKQIQGTETEFNSLVKLSHPNVVRYLAMNLKEQDDSIVVDILVEHISGVSLAAHLSHSGPIPVHQLRRYTAQLLSGLDYLHSNSVVHKVLSASNVLVDAEGTVKITDYSISKRLADICKEDVFEQTRVRFSDNALPYKTGKKGDVWRLGLLLLSLSQGQECGEYPVTIPSDLPADFQDFLKKCVCLDDKERWSPQQLLKHSFINPQPKMPLVEQSPEDSEGQDYVETVIPSNRLPSAAFFSETQRQFSRYFIEFEELQLLGKGAFGAVIKVQNKLDGCCYAVRRIPINPASRQFRRIKGEVTLLSRLHHENIVRYYNAWIERHERPAGPGTPPPDSGPLAKDDRAARGQPASDTDGLDSVEAAAPPPILSSSVEWSTSGERSASARFPATGPGSSDDEDDDEDEHGGVFSQSFLPASDSESDIIFDNEDENSKSQNQDEDCNEKNGCHESEPSVTTEAVHYLYIQMEYCEKSTLRDTIDQGLYRDTVRLWRLFREILDGLAYIHEKGMIHRDLKPVNIFLDSDDHVKIGDFGLATDHLAFSADSKQDDQTGDLIKSDPSGHLTGMVGTALYVSPEVQGSTKSAYNQKVDLFSLGIIFFEMSYHPMVTASERIFVLNQLRDPTSPKFPEDFDDGEHAKQKSVISWLLNHDPAKRPTATELLKSELLPPPQMEESELHEVLHHTLTNVDGKAYRTMMAQIFSQRISPAIDYTYDSDILKGNFSIRTAKMQQHVCETIIRIFKRHGAVQLCTPLLLPRNRQIYEHNEAALFMDHSGMLVMLPFDLRIPFARYVARNNILNLKRYCIERVFRPRKLDRFHPKELLECAFDIVTSTTNSFLPTAEIIYTIYEIIQEFPALQERNYSIYLNHTMLLKAILLHCGIPEDKLSQVYIILYDAVTEKLTRREVEAKFCNLSLSSNSLCRLYKFIEQKGDLQDLMPTINSLIKQKTGIAQLVKYGLKDLEEVVGLLKKLGIKLQVLINLGLVYKVQQHNGIIFQFVAFIKRRQRAVPEILAAGGRYDLLIPQFRGPQALGPVPTAIGVSIAIDKISAAVLNMEESVTISSCDLLVVSVGQMSMSRAINLTQKLWTAGITAEIMYDWSQSQEELQEYCRHHEITYVALVSDKEGSHVKVKSFEKERQTEKRVLETELVDHVLQKLRTKVTDERNGREASDNLAVQNLKGSFSNASGLFEIHGATVVPIVSVLAPEKLSASTRRRYETQVQTRLQTSLANLHQKSSEIEILAVDLPKETILQFLSLEWDADEQAFNTTVKQLLSRLPKQRYLKLVCDEIYNIKVEKKVSVLFLYSYRDDYYRILF
  stoichiometry N: 2
